Data set [1] deals with the molecule itself. Description: SEC; purified His6-tagged PAS1(23–168) compared with the markers BSA (66 kDa) and carbonic anhydrase (29 kDa).
Data set [2] deals with the molecule itself. The experiment in a line: not stated; the protein used for ITC is called 'the E146A mutant dimer'; how the dimer was shown for this mutant is not told.
Data set [3] concerns the molecule itself. The experiment in a line: SEC-MALS; TodS(23–978) 1 mg/ml on Superdex G200, PBS pH 7.3 with 10% glycerol and 5 mM DTT, 0.25 ml/min, 25 °C. Background: Size exclusion chromatography separates by hydrodynamic size, large species first.
Data set [4] deals with the molecule itself. The experiment in a line: SEC; purified PAS2(611–729) compared with the marker carbonic anhydrase (29 kDa).
Data set [5] concerns the molecule itself. The experiment in a line: negative-stain electron microscopy with Ni-NTA gold labelling; Ni-NTA gold (5 nm) on C-terminal His6-tagged TodS(43–978), negatively stained with 1% uranyl acetate.

B1: dimerization helix-containing PAS1 (residues 23–168) of TodS (domain or fragment, Pseudomonas putida F1, UniProt A5W4E3 23-168, looked up)
chain: KEKGSEELTCEEHARIIFDGLYEFVGLLDAHGNVLEVNQVALEGGGITLEEIRGKPFWKARWWQISKKTEATQKRLVETASSGEFVRCDVEILGKSGGREVIAVDFSLLPICNEEGSIVYLLAEGRNITDKKKAEAMLALKNQELE
notes: TodS sensor kinase of Pseudomonas putida F1, residues 23–168 (PAS1 domain with the predicted dimerization helix); In pHis-Parallel1 (NcoI/XhoI), which has a TEV site after the His6 tag; the tag was not removed for this construct; The forward primer adds Met-Gly before Lys23; also called PAS1(23–168); WT PAS1(23–168); source: E. coli C41(DE3), purified (Ni-NTA only); not shown: His6, …
On to B1, for which the “stoichiometry N” value in data set [1] stood at 2.

B2: E146A-PAS1(23–168) (domain or fragment, Pseudomonas putida F1, UniProt A5W4E3 23-168, looked up)
chain: KEKGSEELTCEEHARIIFDGLYEFVGLLDAHGNVLEVNQVALEGGGITLEEIRGKPFWKARWWQISKKTEATQKRLVETASSGEFVRCDVEILGKSGGREVIAVDFSLLPICNEEGSIVYLLAAGRNITDKKKAEAMLALKNQELE
notes: TodS sensor kinase of Pseudomonas putida F1, residues 23–168 with E146A; also called E146A mutant; source: E. coli C41(DE3), purified (Ni-NTA only); not shown: His6, N-terminal, kept
For B2, the “stoichiometry N” value in data set [2] is 2.

B3: V59A-PAS1(23–168) (domain or fragment, Pseudomonas putida F1, UniProt A5W4E3 23-168, looked up)
chain: KEKGSEELTCEEHARIIFDGLYEFVGLLDAHGNVLEANQVALEGGGITLEEIRGKPFWKARWWQISKKTEATQKRLVETASSGEFVRCDVEILGKSGGREVIAVDFSLLPICNEEGSIVYLLAEGRNITDKKKAEAMLALKNQELE
notes: TodS sensor kinase of Pseudomonas putida F1, residues 23–168 with V59A; source: E. coli C41(DE3), purified (Ni-NTA only); not shown: His6, N-terminal, kept
Consider B3, for which, in data set [1], the “stoichiometry N” value was determined as 2.

B4: F46A-PAS1(23–168) (domain or fragment, Pseudomonas putida F1, UniProt A5W4E3 23-168, looked up)
chain: KEKGSEELTCEEHARIIFDGLYEAVGLLDAHGNVLEVNQVALEGGGITLEEIRGKPFWKARWWQISKKTEATQKRLVETASSGEFVRCDVEILGKSGGREVIAVDFSLLPICNEEGSIVYLLAEGRNITDKKKAEAMLALKNQELE
notes: TodS sensor kinase of Pseudomonas putida F1, residues 23–168 with F46A; source: E. coli C41(DE3), purified (Ni-NTA only); not shown: His6, N-terminal, kept
As to B4, the “stoichiometry N” value in data set [1] worked out at 2.

B5: F79Y-PAS1(23–168) (domain or fragment, Pseudomonas putida F1, UniProt A5W4E3 23-168, looked up)
chain: KEKGSEELTCEEHARIIFDGLYEFVGLLDAHGNVLEVNQVALEGGGITLEEIRGKPYWKARWWQISKKTEATQKRLVETASSGEFVRCDVEILGKSGGREVIAVDFSLLPICNEEGSIVYLLAEGRNITDKKKAEAMLALKNQELE
notes: TodS sensor kinase of Pseudomonas putida F1, residues 23–168 with F79Y; source: E. coli C41(DE3), purified (Ni-NTA only); not shown: His6, N-terminal, kept
Turning to B5, the “stoichiometry N” value in data set [1] stood at 2.

B6: W85H-PAS1(23–168) (domain or fragment, Pseudomonas putida F1, UniProt A5W4E3 23-168, looked up)
chain: KEKGSEELTCEEHARIIFDGLYEFVGLLDAHGNVLEVNQVALEGGGITLEEIRGKPFWKARWHQISKKTEATQKRLVETASSGEFVRCDVEILGKSGGREVIAVDFSLLPICNEEGSIVYLLAEGRNITDKKKAEAMLALKNQELE
notes: TodS sensor kinase of Pseudomonas putida F1, residues 23–168 with W85H; source: E. coli C41(DE3), purified (Ni-NTA only); not shown: His6, N-terminal, kept
Turning to B6, the “stoichiometry N” value in data set [1] was determined as 2.

B7: dimerization helix-containing TodS (residues 23–978) (enzyme, Pseudomonas putida F1, UniProt A5W4E3 23-978, looked up)
chain: KEKGSEELTCEEHARIIFDGLYEFVGLLDAHGNVLEVNQVALEGGGITLEEIRGKPFWKARWWQISKKTEATQKRLVETASSGEFVRCDVEILGKSGGREVIAVDFSLLPICNEEGSIVYLLAEGRNITDKKKAEAMLALKNQELEQSVECIRKLDNAKSDFFAKVSHELRTPLSLILGPLEAVMAAEAGRESPYWKQFEVIQRNAMTLLKQVNTLLDLAKMDARQMGLSYRRANLSQLTRTISSNFEGIAQQKSITFDTKLPVQMVAEVDCEKYERIILNLLSNAFKFTPDGGLIRCCLSLSRPNYALVTVSDSGPGIPPALRKEIFERFHQLSQEGQQATRGTGLGLSIVKEFVELHRGTISVSDAPGGGALFQVKLPLNAPEGAYVASNTAPRRDNPQVVDTDEYLLLAPNAENEAEVLPFQSDQPRVLIVEDNPDMRGFIKDCLSSDYQVYVAPDGAKALELMSNMPPDLLITDLIMPVMSGDMLVHQVRKKNELSHIPIMVLSAKSDAELRVKLLSESVQDFLLKPFSAHELRARVSNLVSMKVAGDALRKELSDQGDDIAILTHRLIKSRHRLQQSNIALSASEARWKAVYENSAAGIVLTDPENRILNANPAFQRITGYGEKDLEGLSMEQLTPSDESPQIKQRLANLLQGGGAEYSVERSYLCKNGSTIWANASVSLMPQRVGESPVILQIIDDITEKKQAQENLNQLQQQLVYVSRSATMGEFAAYIAHEINQPLSAIMTNANAGTRWLGNEPSNIPEAKEALARIIRDSDRAAEIIRMVRSFLKRQETVLKPIDLKALVTDTSLILKAPSQNNSVNLDVVADDELPEIWGDGVQIQQLIINLAMNAIEAISQADCETRQLTLSFSGNDTGDALVISVKDTGPGISERQMAQLFNAFYTTKKEGLGMGLAICLTITEVHNGKIWVECPPAGGACFLVSIPARQGSGT
notes: In pGST-Parallel1 (BamHI/XhoI); not shown: GST, N-terminal, cleaved
Regarding B7, the “stoichiometry N” value in data set [3] worked out at 2.

B8: TodS PAS2 (residues 611–729) (domain or fragment, Pseudomonas putida F1, UniProt A5W4E3 611-729, looked up)
chain: SEARWKAVYENSAAGIVLTDPENRILNANPAFQRITGYGEKDLEGLSMEQLTPSDESPQIKQRLANLLQGGGAEYSVERSYLCKNGSTIWANASVSLMPQRVGESPVILQIIDDITEKK
notes: TodS sensor kinase of Pseudomonas putida F1, residues 611–729 (PAS2 domain); also called PAS2(611–729); source: E. coli BL21 Star (DE3), purified (Ni-NTA, TEV protease, SEC Superdex G75, second Ni-NTA); not shown: His6, N-terminal, cleaved
With B8, the “stoichiometry N” value in data set [4] is 2.

B9: TodS (residues 43–978), C-terminal His6-tagged (enzyme, Pseudomonas putida F1, UniProt A5W4E3 43-978, looked up)
chain: LYEFVGLLDAHGNVLEVNQVALEGGGITLEEIRGKPFWKARWWQISKKTEATQKRLVETASSGEFVRCDVEILGKSGGREVIAVDFSLLPICNEEGSIVYLLAEGRNITDKKKAEAMLALKNQELEQSVECIRKLDNAKSDFFAKVSHELRTPLSLILGPLEAVMAAEAGRESPYWKQFEVIQRNAMTLLKQVNTLLDLAKMDARQMGLSYRRANLSQLTRTISSNFEGIAQQKSITFDTKLPVQMVAEVDCEKYERIILNLLSNAFKFTPDGGLIRCCLSLSRPNYALVTVSDSGPGIPPALRKEIFERFHQLSQEGQQATRGTGLGLSIVKEFVELHRGTISVSDAPGGGALFQVKLPLNAPEGAYVASNTAPRRDNPQVVDTDEYLLLAPNAENEAEVLPFQSDQPRVLIVEDNPDMRGFIKDCLSSDYQVYVAPDGAKALELMSNMPPDLLITDLIMPVMSGDMLVHQVRKKNELSHIPIMVLSAKSDAELRVKLLSESVQDFLLKPFSAHELRARVSNLVSMKVAGDALRKELSDQGDDIAILTHRLIKSRHRLQQSNIALSASEARWKAVYENSAAGIVLTDPENRILNANPAFQRITGYGEKDLEGLSMEQLTPSDESPQIKQRLANLLQGGGAEYSVERSYLCKNGSTIWANASVSLMPQRVGESPVILQIIDDITEKKQAQENLNQLQQQLVYVSRSATMGEFAAYIAHEINQPLSAIMTNANAGTRWLGNEPSNIPEAKEALARIIRDSDRAAEIIRMVRSFLKRQETVLKPIDLKALVTDTSLILKAPSQNNSVNLDVVADDELPEIWGDGVQIQQLIINLAMNAIEAISQADCETRQLTLSFSGNDTGDALVISVKDTGPGISERQMAQLFNAFYTTKKEGLGMGLAICLTITEVHNGKIWVECPPAGGACFLVSIPARQGSGT
notes: In pET28b(+) (NcoI/XhoI); source: E. coli BL21 Star (DE3), purified (Ni-NTA, SEC Superdex G200); not shown: His6, C-terminal, kept
For the protein B9, the “stoichiometry N” value in data set [5] was found to be 2.

As usually defined, the stoichiometry N is a count of units in the complex or per binding partner.

Values taken from paper PMC4861429 (The Journal of Biological Chemistry, 2016).
